Source: US8022177B2, “Peptides and calcium regulation in mammalian cells” (The Board of Trustees of the University of Illinois, priority 2005, dated 2011)

Experiments:
Cav3.1 [1] = molecular target: T1, Cav3.1 (Homo sapiens, UniProt O43497); assay: Whole-cell patch clamp of Cav3.1 current in Cav3.1-HEK cells transfected with γ6, γ4, their first transmembrane domains or point mutants (Example 3); type: cell-based; design: Activation K / Inactivation K: unit not given here; conditions: for Peak current density: Cav3.1-HEK cells, control 48.43±2.62; for Calcium current density (unit not given): Example 2, control −48.39+/−2.6, fusion series control −46.9+/−5; for Activation K / Activation V½ / Deactivation τ @−100 mV / Inactivation K / Inactivation V½ / Inactivation τ @−20 mV / Time to peak @−25 mV / Activation V peak: Table 3.2; for Normalized Current Density: relative to vector control (100.0%), Table 3.3
T1 construct: expressed in transfected cells; host or cells: HEK-293, stably transfected
Experimental: Transfection. HEK-293 cells stably transfected with the Cav3.1 α1 subunit were transiently transfected with vectors containing GFP and γ subunits cDNA when the cultures reached 50% confluency. Lipofectamine 2000 reagent (Invitrogen) was used following manufacturer's protocol.
Electrophysiology. Whole cell Ca2+ currents were recorded at room temperature using an Axon Instruments Axopatch-1D amplifier, a Digidata 1200 interface and pClamp8.0 software about 48 hours after transfection. Cell capacitance was typically around 10 pF, but ranged from 5-40 pF. Recording micropipettes were made from borosilicate glass (2-3 Mohms tip resistance), and filled with solution contained (in mM) 130 NaCl, 10 EGTA, 2 MgCl2, 1 CaCl2, 10 HEPES, 3 Tris-ATP, and 0.3 Li2GTP or 0.3 Tris-GTP. Tyrode's solution was used as the bath solution. It contained (in mM) 137 NaCl, 1 KCl, 1 MgCl2, 0.33 NaH2PO4, 2 CaCl2, 10 HEPES. Both solutions were adjusted to pH 7.4 with NaOH and 280 mOsm with sucrose.
We determined the biophysical characteristics of Cav3.1 currents in transfected HEK-293 cells and effects of the first transmembrane domain of γ4 and γ6 on these properties. Test parameters were optimized for studying Cav3.1 current. The time constant (τ) of deactivation (τdeac) was obtained by single exponential fitting of tail currents. For Cav3.1 currents, the cells were clamped at a holding potential of −100 mV, then depolarized to −20 mV for 4 msec, and repolarized to various voltages from −120 mV to −60 mV at 10 mV interval for 150 msec to elicit tail currents.
The voltage dependence of activation was measured using tail currents. For Cav3.1 currents, the cells were clamped at a holding potential equal to −100 mV, and then depolarized briefly to a conditioning potential, varying from −90 mV to +60 mV, and finally clamped at −60 mV before inactivation. Using this protocol, all tail currents are elicited at the same driving force (at −60 mV), so the current amplitude accurately reflects the number of channels opened during the different conditioning potentials.
A series of conditioning prepulses of 500 msec were used to measure voltage dependence of inactivation in our experiments. Channels initially open and then reach steady-state inactivation during the 500 msec long prepulses. The membrane potential is stepped to a fixed test potential of −20 mV, where maximal peak current is elicited. Currents elicited at each test potential reflect how many channels are not in the inactivated state after a steady-state inactivation; that is, how many channels are available to open. The conditioning prepulse potentials were changed from −120 mV to 50 mV, and the test potential is fixed at −20 mV.
Data collection and analysis. To probe the structural features necessary for the function of γ subunits, we are using HEK-293 cell line stably transfected with Cav3.1 α1 subunit. These cells are then transiently transfected with vectors containing various chimeric, truncated or mutant gamma subunits. […] There is inherent variation in calcium current density in the HEK-Cav3.1 stable cell line likely due to differences in the batch used, passenger number, extent of cellular confluence, or for other unknown reasons. The averaged current density of each test group of cells was normalized to the mean current density of a parallel control group of cells plated from the same batch of cells and analyzed on the same day. A minimum of 5 cells (typically 7 to 10) from each group was used to calculate the mean behavior of test and control cells from each days recording. At least two independent transfections were performed for each test condition. Overall, averages were obtained from 21 control groups of cells that had been transfected with empty vector over several months. The data are pooled together to reduce the variance. […] The current density of the control cells over many months justified the pooling of data recorded from different batches of cells transfected with mutated γ subunits. […]

Cav3.1 [2] = molecular target: T1, Cav3.1; assay: Whole-cell patch clamp of Cav3.1 dependent LVA calcium current in HEK-293/Cav3.1 cells transiently transfected with γ subunits (Example 1); type: cell-based
Experimental: 2.3. Transfection. Untransfected HEK-293 cells, HEK-293 cell lines stably transfected with Cav3.1, and HL-1 cells were transiently transfected with vectors containing γ subunit, GFP, and modified CFP cDNAs using Lipofectamine 2000 reagent (InVitrogen) as per the manufacturer's recommendations. HEK-293 cells were grown to 70-80% confluence before transfection. HL-1 cells were grown to 50-75% confluence before transfection.
2.4. Electrophysiology. Whole-cell calcium currents were recorded using an Axopatch-1 D patch clamp system and Clampex 8.0 software. Pipettes were fabricated from borosilicate glass and had typical resistances of 2-4 MΩ. The pipette solution contained (in mM): 130 NaCl, 10 EGTA, 2 MgCl2, 1 CaCl2, 10 HEPES, 3 Tris-ATP, and either 0.3 Li2GTP or 0.3 Tris-GTP, adjusted to pH 7.4 with NaOH and 280 mOsm with sucrose. The bath solution contained (in mM): 137 NaCl (for HEK-293 experiments) or 120 TEACl (for HL-1 experiments), 1 KCl, 1 MgCl2, 0.33 NaH2PO4, 2 CaCl2 (for HEK-293 experiments) or 5 CaCl2 (for HL-1 experiments), 10 glucose (for HL-1 experiments only), 10 HEPES, and 30 μM TTX (for HEK-293 experiments only), adjusted to pH 7.4 with NaOH (for HEK-293 experiments) or TEAOH (for HL-1 experiments) and 280 mOsm with sucrose. NaCl was used as the major salt in the pipette solution order to eliminate any outward K+ currents.
Recordings from HEK-293 cells were made 48-96 h posttransfection, at which time expression, as measured by GFP fluorescence, peaked. HL-1 cells were used for recording 24-36 h post-transfection. Current densities in HEK-293/Cav3.1 cell experiments were normalized to control for variation in current expression in the different frozen stocks of stable cell lines used. […] HL-1 experiments were performed using a single stock of cells. All HEK-293 data are from current records in which pipette and whole-cell capacitance were about 100% compensated and series resistance was compensated to >80%. Whole-cell capacitance and series resistance were not compensated for HL-1 recordings as currents were typically <100 pA. Series resistance values were typically <10 MX, and no records were used in which the voltage error (as defined by Ver=Imax×Ra) was greater than 5 mV. The holding potential of all protocols used for HEK-293 cells was −100 mV except for steady-state inactivation protocols where the holding potential was −120 mV. The holding potential for protocols used for HL-1 cells was −90 mV. Current-voltage relationships for all HEK-293 and HL-1 cells were measured using 50 ms test depolarizations. Peak current amplitudes for activation curves were determined by fitting tail currents, elicited by stepping membrane voltage from varying test potentials to −60 mV, with the Boltzman equation. Test potential steps for activation protocols were of varied durations, corresponding to the time to peak of the elicited current. Inactivation curves were determined by fitting peak amplitudes of currents, observed in a test pulse to −20 mV, following 500 ms steps to varying potentials, with the Boltzman equation. Time to peak was determined using the current-voltage protocol described above. Inactivation time constants were determined by fitting the decay phase of currents to an exponential equation and deactivation time constants were determined by fitting the decay phase of tail currents to an exponential equation. […] Currents were recorded at 40 kHz and on-line filtered at either 5 or 10 kHz. In some cases currents were off-line filtered at 1 kHz to further reduce noise. Current/voltage relationships and tail currents were recorded from HEK cells using an on-line P/−4 subtraction procedure. Calcium currents recorded from HL-1 cells were off-line leak subtracted. The average membrane capacitance of untransfected HEK-293 cells in pilot experiments was 12.5±1.4 pF (n=8). […]

T1 sequence (O43497 whole entry, the tested form may be a part): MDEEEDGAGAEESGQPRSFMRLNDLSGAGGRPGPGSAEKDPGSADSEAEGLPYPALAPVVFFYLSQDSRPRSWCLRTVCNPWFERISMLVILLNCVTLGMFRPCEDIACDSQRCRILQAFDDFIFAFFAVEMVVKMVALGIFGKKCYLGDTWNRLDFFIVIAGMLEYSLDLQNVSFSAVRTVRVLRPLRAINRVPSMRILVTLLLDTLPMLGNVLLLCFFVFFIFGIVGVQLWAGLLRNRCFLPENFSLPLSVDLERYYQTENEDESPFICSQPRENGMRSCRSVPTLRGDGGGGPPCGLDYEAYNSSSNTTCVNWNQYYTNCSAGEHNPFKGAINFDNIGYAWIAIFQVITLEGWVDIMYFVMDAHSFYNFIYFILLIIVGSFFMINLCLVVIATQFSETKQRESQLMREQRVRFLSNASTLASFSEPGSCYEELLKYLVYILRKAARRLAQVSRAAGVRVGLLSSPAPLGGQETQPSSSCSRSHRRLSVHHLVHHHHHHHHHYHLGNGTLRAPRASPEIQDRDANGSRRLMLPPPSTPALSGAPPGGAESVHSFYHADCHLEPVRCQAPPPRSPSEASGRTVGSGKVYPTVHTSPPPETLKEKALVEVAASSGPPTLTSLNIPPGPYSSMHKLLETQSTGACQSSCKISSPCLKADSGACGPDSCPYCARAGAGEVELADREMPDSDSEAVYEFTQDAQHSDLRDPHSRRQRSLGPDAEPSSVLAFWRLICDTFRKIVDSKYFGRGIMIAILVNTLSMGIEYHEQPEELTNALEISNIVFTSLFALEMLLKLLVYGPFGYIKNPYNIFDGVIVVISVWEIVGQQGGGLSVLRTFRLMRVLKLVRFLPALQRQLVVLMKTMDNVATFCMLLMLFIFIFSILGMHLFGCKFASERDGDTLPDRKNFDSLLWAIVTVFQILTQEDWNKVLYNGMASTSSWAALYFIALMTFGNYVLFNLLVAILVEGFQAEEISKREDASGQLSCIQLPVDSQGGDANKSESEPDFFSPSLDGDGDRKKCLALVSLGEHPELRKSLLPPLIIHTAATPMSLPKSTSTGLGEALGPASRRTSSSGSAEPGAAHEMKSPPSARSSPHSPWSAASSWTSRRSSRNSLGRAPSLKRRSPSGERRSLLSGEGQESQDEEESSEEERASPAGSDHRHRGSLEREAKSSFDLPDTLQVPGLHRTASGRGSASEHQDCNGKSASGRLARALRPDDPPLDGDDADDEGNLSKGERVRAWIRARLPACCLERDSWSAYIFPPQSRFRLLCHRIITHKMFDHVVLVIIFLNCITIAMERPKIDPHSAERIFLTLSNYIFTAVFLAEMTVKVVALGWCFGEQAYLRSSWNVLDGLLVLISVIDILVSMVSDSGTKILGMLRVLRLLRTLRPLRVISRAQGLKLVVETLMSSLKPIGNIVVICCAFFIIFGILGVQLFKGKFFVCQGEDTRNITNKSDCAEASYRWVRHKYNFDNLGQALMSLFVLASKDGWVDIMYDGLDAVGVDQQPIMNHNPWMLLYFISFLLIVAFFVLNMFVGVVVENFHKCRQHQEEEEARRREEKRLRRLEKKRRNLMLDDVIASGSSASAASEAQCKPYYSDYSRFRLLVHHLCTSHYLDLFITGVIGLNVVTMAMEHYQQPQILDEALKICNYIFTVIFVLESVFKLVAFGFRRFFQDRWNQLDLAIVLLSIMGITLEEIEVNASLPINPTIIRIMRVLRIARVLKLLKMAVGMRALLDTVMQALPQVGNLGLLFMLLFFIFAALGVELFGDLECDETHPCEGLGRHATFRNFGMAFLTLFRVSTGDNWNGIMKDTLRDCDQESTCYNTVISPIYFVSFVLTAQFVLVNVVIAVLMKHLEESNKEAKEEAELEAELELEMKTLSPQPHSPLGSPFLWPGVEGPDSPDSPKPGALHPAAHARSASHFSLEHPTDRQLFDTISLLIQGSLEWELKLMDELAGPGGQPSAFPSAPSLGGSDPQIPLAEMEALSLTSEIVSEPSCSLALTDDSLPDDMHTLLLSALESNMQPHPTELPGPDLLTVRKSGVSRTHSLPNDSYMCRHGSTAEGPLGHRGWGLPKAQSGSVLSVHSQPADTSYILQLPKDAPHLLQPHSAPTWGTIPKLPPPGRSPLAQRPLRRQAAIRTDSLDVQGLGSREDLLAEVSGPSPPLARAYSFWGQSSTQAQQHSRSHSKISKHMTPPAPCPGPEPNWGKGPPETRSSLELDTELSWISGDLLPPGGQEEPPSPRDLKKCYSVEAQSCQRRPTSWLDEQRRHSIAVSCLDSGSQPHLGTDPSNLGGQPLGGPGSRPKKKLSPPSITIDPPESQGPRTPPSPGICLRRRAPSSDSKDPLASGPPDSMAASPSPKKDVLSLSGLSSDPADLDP

For “γ4 TM1: first transmembrane domain of γ4, SEQ ID NO:17 (LLTTAGAFAAFSLMAIAIGT)”, the Peak current density (Cav3.1 [1]) was 56.34±5.01 pA/pF, the “Calcium current density (unit not given)” value (Cav3.1 [1]) was −48.3+/−3 and the “Activation K” value (Cav3.1 [1]) was 13.29 ± 0.70. The “Activation V½” value (Cav3.1 [1]) was −29.71 ± 2.03 mV, the “Deactivation τ @−100 mV” value (Cav3.1 [1]) was 2.40 ± 0.22 ms and the “Inactivation K” value (Cav3.1 [1]) was −5.92 ± 0.12. For the same molecule, the “Inactivation V½” value (Cav3.1 [1]) was −66.17 ± 0.83 mV, the “Inactivation τ @−20 mV” value (Cav3.1 [1]) was 25.5 ± 0.9 ms and the “Time to peak @−25 mV” value (Cav3.1 [1]) was 9.00 ± 0.51. For the same molecule, the “Activation V peak” value (Cav3.1 [1]; listed as γ4 1stTM) was −28.57 ± 0.82 mV and the “Activation V peak” value (Cav3.1 [1]; listed as γ4 first transmembrane domain) was −28.57±0.82 mV.

In the case of “γ6 TM1: first transmembrane domain of γ6, approximately 20 amino acids, SEQ ID NO:12 (KLGLLVAIVGATLAVLAVGT)”, the Peak current density (Cav3.1 [1]) is reported as 38.65±2.92 pA/pF, the “Calcium current density (unit not given)” value (Cav3.1 [1]) is reported as −38.6+/−2.9 and the “Decrease of peak current density from control” value (Cav3.1 [1]; TM1 series, vs blank vector) is reported as 20%. The “Activation K” value (Cav3.1 [1]) was 10.85 ± 0.49, the “Activation V peak” value (Cav3.1 [1]) was −26.00±1.00 mV and the “Activation V½” value (Cav3.1 [1]) was −30.33 ± 2.32 mV. The “Deactivation τ @−100 mV” value (Cav3.1 [1]) was 2.01 ± 0.21 ms, the “Inactivation K” value (Cav3.1 [1]) was −5.54 ± 0.12 and the “Inactivation V½” value (Cav3.1 [1]) was −62.43 ± 0.65 mV. The “Inactivation τ @−20 mV” value (Cav3.1 [1]) was 24.0 ± 1.3 ms, the “Time to peak @−25 mV” value (Cav3.1 [1]) was 11.06 ± 0.97 and the “Activation V peak” value (Cav3.1 [1]; listed as γ6 1stTM) was −26.00 ± 1.00 mV.

B1: γ6 L43S: γ6 with leucine at position 43 substituted with serine (protein, UniProt Q9BXT2 1-260, looked up, variant L43S)
Voltage-dependent calcium …: MMWSNFFLQEENRRRGAAGRRRAHGQGRSGLTPEREGKVKLASLLAAVGATLAVLSVGTEFWVELNTYKANGSAVCEAAHLGLWKACTKRLWQADVPVDRDTCGPAELPGEANCTYFKFFTTGENARIFQRTTKKEVNLAAAVIAVLGLAVMALGCLCIIMVLSKGAEFLLRVGAVCFGLSGLLLLVSLEVFRHSVRALLQRVSPEPPPAPRLTYEYSWSLGCGVGAGLILLLGAGCFLLLTLPSWPWGSLCPKRGHRAT
In the case of B1, the “Normalized Current Density” value (Cav3.1 [1]) is reported as 48.2% and the “Normalized Current Density” value (Cav3.1 [1]; listed as L43S) is reported as 48.2%±7.2%.

B2: γ7: rat calcium channel γ7 subunit (AF361345), SEQ ID NO:50 (protein, listed as Rattus norvegicus)
chain: MSHCSSRALTLLSSVFGACGLLLVGIAVSTDYWLYMEEGTVLPQNQTTEVKMALHAGLWRVCFFAGREKGRCVASEYFLEPEINLVTENTENILKTVRTATPFPMVSLFLVFTAFVISNIGHIRPQRTILAFVSGIFFILSGLSLVVGLVLYISSINDEVMNRPSSSEQYFHYRYGWSFAFAASSFLLKEGAGVMSVYLFTKRYAEEEMYRPHPAFYRPRLSDCSDYSGQFLQPEAWRRGRSPSDISSDVSIQMTQNYPPAIKYPDHLHISTSPC
In the case of B2, the “Effect on current kinetics or voltage dependency” value (Cav3.1 [2]; HEK-293/Cav3.1) is reported as “did not alter current kinetics or voltage dependency”, the “Peak current density, % of control value” (Cav3.1 [2]; HEK-293/Cav3.1, normalized to adCGI vector control, mean±S.E.M.) is reported as 99%±8% and the “Effect on Cav3.1 current” value (Cav3.1 [2]; HEK-293 cells) is reported as “no significant effect”. The “Activation V 0.5” value (Cav3.1 [2]; Table 2) was −28.1 ± 1.2 (n = 11) mV, the Activation k (Cav3.1 [2]; Table 2) was 11.1 ± 0.3 (n = 11) and the “Deactivation tau @ −100 mV, Fast” value (Cav3.1 [2]; Table 2) was 1.30 ± 0.10 (n = 11) ms. The “Inactivation Tau @ −20 mV” value (Cav3.1 [2]; Table 2) was 17.2 ± 0.5 (n = 10) ms, the “Inactivation V 0.5” value (Cav3.1 [2]; Table 2) was −68.6 ± 1.4 (n = 10) mV and the Inactivation k (Cav3.1 [2]; Table 2) was 6.0 ± 0.1 (n = 10). The “Time to peak @ −20 mV” value (Cav3.1 [2]; Table 2) was 7.0 ± 0.4 (n = 11) ms and the V peak (Cav3.1 [2]; Table 2) was −24.1 ± 0.9 (n = 11) mV.
